Reference: patent US20190177370A1 (TOKYO UNIVERSITY OF PHARMACY AND LIFE SCIENCES, published 2019)
Square brackets hold non-standard residues; d marks the D form. Primed or numbered codes have the meaning given here. * marks the point of attachment. m‑dPEG(4)″ = m-dPEG(4) acid, coupled to Acp (R^111 group of Formula (4)), COCCOCCOCCOCCC(=O)*; m‑dPEG(4) = m-dPEG(4) acid, coupled to Acp, with Acp forms R^111 of Formula (4); 2Nal = N[C@@H](Cc1ccc2ccccc2c1)C(=O)O; Cha = N[C@@H](CC1CCCCC1)C(=O)O; Chg = N[C@H](C(=O)O)C1CCCCC1; Nva = CCC[C@H](N)C(=O)O; Ahx = NCCCCCC(=O)O

B1: PDM-38 (peptide)
peptide: {m‑dPEG(4)″-Ahx}-W[2Nal]IEWIKIQIISKLRL-NH2
SMILES: CC[C@H](C)[C@H](NC(=O)[C@H](Cc1ccc2ccccc2c1)NC(=O)[C@H](Cc1c[nH]c2ccccc12)NC(=O)CCCCCNC(=O)CCOCCOCCOCCOC)C(=O)N[C@@H](CCC(=O)O)C(=O)N[C@@H](Cc1c[nH]c2ccccc12)C(=O)N[C@H](C(=O)N[C@@H](CCCCN)C(=O)N[C@H](C(=O)N[C@@H](CCC(N)=O)C(=O)N[C@H](C(=O)N[C@H](C(=O)N[C@@H](CO)C(=O)N[C@@H](CCCCN)C(=O)N[C@@H](CC(C)C)C(=O)N[C@@H](CCCNC(=N)N)C(=O)N[C@@H](CC(C)C)C(N)=O)[C@@H](C)CC)[C@@H](C)CC)[C@@H](C)CC)[C@@H](C)CC
B2: nPDM-64 (peptide)
peptide: H-WYIRWIK[Chg]QIWSKLRL-NH2
SMILES: CC[C@H](C)[C@H](NC(=O)[C@H](CCC(N)=O)NC(=O)[C@@H](NC(=O)[C@H](CCCCN)NC(=O)[C@@H](NC(=O)[C@H](Cc1c[nH]c2ccccc12)NC(=O)[C@H](CCCNC(=N)N)NC(=O)[C@@H](NC(=O)[C@H](Cc1ccc(O)cc1)NC(=O)[C@@H](N)Cc1c[nH]c2ccccc12)[C@@H](C)CC)[C@@H](C)CC)C1CCCCC1)C(=O)N[C@@H](Cc1c[nH]c2ccccc12)C(=O)N[C@@H](CO)C(=O)N[C@@H](CCCCN)C(=O)N[C@@H](CC(C)C)C(=O)N[C@@H](CCCNC(=N)N)C(=O)N[C@@H](CC(C)C)C(N)=O
B3: PDM-44 (peptide)
peptide: {m‑dPEG(4)″-Ahx}-WYIE[2Nal]IKIQIISKLRL-NH2
SMILES: CC[C@H](C)[C@H](NC(=O)[C@H](Cc1ccc(O)cc1)NC(=O)[C@H](Cc1c[nH]c2ccccc12)NC(=O)CCCCCNC(=O)CCOCCOCCOCCOC)C(=O)N[C@@H](CCC(=O)O)C(=O)N[C@@H](Cc1ccc2ccccc2c1)C(=O)N[C@H](C(=O)N[C@@H](CCCCN)C(=O)N[C@H](C(=O)N[C@@H](CCC(N)=O)C(=O)N[C@H](C(=O)N[C@H](C(=O)N[C@@H](CO)C(=O)N[C@@H](CCCCN)C(=O)N[C@@H](CC(C)C)C(=O)N[C@@H](CCCNC(=N)N)C(=O)N[C@@H](CC(C)C)C(N)=O)[C@@H](C)CC)[C@@H](C)CC)[C@@H](C)CC)[C@@H](C)CC
B4: PDM-53 (peptide)
peptide: {m‑dPEG(4)″-Ahx}-WYIEWIKIQI[Chg]SKLRL-NH2
SMILES: CC[C@H](C)[C@H](NC(=O)[C@H](Cc1ccc(O)cc1)NC(=O)[C@H](Cc1c[nH]c2ccccc12)NC(=O)CCCCCNC(=O)CCOCCOCCOCCOC)C(=O)N[C@@H](CCC(=O)O)C(=O)N[C@@H](Cc1c[nH]c2ccccc12)C(=O)N[C@H](C(=O)N[C@@H](CCCCN)C(=O)N[C@H](C(=O)N[C@@H](CCC(N)=O)C(=O)N[C@H](C(=O)N[C@H](C(=O)N[C@@H](CO)C(=O)N[C@@H](CCCCN)C(=O)N[C@@H](CC(C)C)C(=O)N[C@@H](CCCNC(=N)N)C(=O)N[C@@H](CC(C)C)C(N)=O)C1CCCCC1)[C@@H](C)CC)[C@@H](C)CC)[C@@H](C)CC
B5: PDM-52 (peptide)
peptide: {m‑dPEG(4)″-Ahx}-WYIEWIKIQI[Nva]SKLRL-NH2
SMILES: CCC[C@H](NC(=O)[C@@H](NC(=O)[C@H](CCC(N)=O)NC(=O)[C@@H](NC(=O)[C@H](CCCCN)NC(=O)[C@@H](NC(=O)[C@H](Cc1c[nH]c2ccccc12)NC(=O)[C@H](CCC(=O)O)NC(=O)[C@@H](NC(=O)[C@H](Cc1ccc(O)cc1)NC(=O)[C@H](Cc1c[nH]c2ccccc12)NC(=O)CCCCCNC(=O)CCOCCOCCOCCOC)[C@@H](C)CC)[C@@H](C)CC)[C@@H](C)CC)[C@@H](C)CC)C(=O)N[C@@H](CO)C(=O)N[C@@H](CCCCN)C(=O)N[C@@H](CC(C)C)C(=O)N[C@@H](CCCNC(=N)N)C(=O)N[C@@H](CC(C)C)C(N)=O
B6: PDM-39 (peptide)
peptide: {m‑dPEG(4)″-Ahx}-W[Cha]IEWIKIQIISKLRL-NH2
SMILES: CC[C@H](C)[C@H](NC(=O)[C@H](CC1CCCCC1)NC(=O)[C@H](Cc1c[nH]c2ccccc12)NC(=O)CCCCCNC(=O)CCOCCOCCOCCOC)C(=O)N[C@@H](CCC(=O)O)C(=O)N[C@@H](Cc1c[nH]c2ccccc12)C(=O)N[C@H](C(=O)N[C@@H](CCCCN)C(=O)N[C@H](C(=O)N[C@@H](CCC(N)=O)C(=O)N[C@H](C(=O)N[C@H](C(=O)N[C@@H](CO)C(=O)N[C@@H](CCCCN)C(=O)N[C@@H](CC(C)C)C(=O)N[C@@H](CCCNC(=N)N)C(=O)N[C@@H](CC(C)C)C(N)=O)[C@@H](C)CC)[C@@H](C)CC)[C@@H](C)CC)[C@@H](C)CC

Biological target: T1, myostatin (UniProt O14793 267-375, limits assumed)
T1 sequence (looked up): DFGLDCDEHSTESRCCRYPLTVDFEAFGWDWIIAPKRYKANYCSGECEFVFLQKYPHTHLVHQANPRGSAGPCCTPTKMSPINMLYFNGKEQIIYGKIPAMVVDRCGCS
Assay: cell-based or functional assay

Myostatin inhibitory activity at 0.3 µM (luciferase reporter assay), ≥ 40 % inhibition:
H-WYIEWIKIQIWSKLRL-NH2 [nPDM-55]
H-WYIKWIKIQIWSKLRL-NH2 [nPDM-55/E31K]
{m‑dPEG(4)-Ahx}-WYIEWIKIQIWSKLRL-NH2 [PDM-55]
B2
H-WYIRWIKIQIWSKLRL-NH2 [nPDM-55/E31R]
{m‑dPEG(4)-Ahx}-WYIESIKIQIWSKLRL-NH2 [PDM-63]
H-WYIQWIKIQIWSKLRL-NH2 [nPDM-55/E31Q]

Myostatin inhibitory activity at 1 µM (luciferase reporter assay), ≥ 40 % inhibition:
H-WYIEWIKIQIWSKLRL-NH2 [nPDM-55]
{m‑dPEG(4)-Ahx}-WSIEWIKIQIISKLRL-NH2 [PDM-43]
{m‑dPEG(4)-Ahx}-WYIESIKIQIISKLRL-NH2 [PDM-46]
{m‑dPEG(4)-Ahx}-YYIESIKIQIISKLRL-NH2 [PDM-61]
{m‑dPEG(4)-Ahx}-WFIEWIKIQIISKLRL-NH2 [PDM-37]
{m‑dPEG(4)-Ahx}-WYIEWIKIQIWSKLRL-NH2 [PDM-55]
B1
{m‑dPEG(4)-Ahx}-WYIEHIKIQIISKIRL-NH2 [PDM-51]
B2
{m‑dPEG(4)-Ahx}-WYIEWIKIQIYSKLRL-NH2 [PDM-56]
{m‑dPEG(4)-Ahx}-WYIEFIKIQIISKIRL-NH2 [PDM-49]
{m‑dPEG(4)-Ahx}-WHIEWIKIQIISKLRL-NH2 [PDM-41]
B3
{m‑dPEG(4)-Ahx}-WYIEWIKIQIFSKLRL-NH2 [PDM-54]
H-WYIESIKIQIISKLRL-NH2 [nPDM-46]
{m‑dPEG(4)-Ahx}-WYIESIKIQIWSKLRL-NH2 [PDM-63]
B4
B5
{m‑dPEG(4)-Ahx}-HYIEWIKIQIISKLRL-NH2 [PDM-35]
{m‑dPEG(4)-Ahx}-WYIERIKIQIISKLRL-NH2 [PDM-47]
{m‑dPEG(4)-Ahx}-WYIEYIKIQIISKIRL-NH2 [PDM-50]
{m‑dPEG(4)-Ahx}-YWIEWIKIQIISKLRL-NH2 [PDM-28]
{m‑dPEG(4)-Ahx}-WRIESIKIQIISKLRL-NH2 [PDM-62]
{m‑dPEG(4)-Ahx}-WYIELIKIQIISKLRL-NH2 [PDM-45]
{m‑dPEG(4)-Ahx}-LYIEWIKIQIISKLRL-NH2 [PDM-34]
{m‑dPEG(4)-Ahx}-WLIEWIKIQIISKLRL-NH2 [PDM-40]
{m‑dPEG(4)-Ahx}-WRIEWIKIQIISKLRL-NH2 [PDM-42]
B6
H-WYIESIKIQIWSKLRL-NH2 [nPDM-63]
